Data: the nanobody polyreactivity screen of Harvey et al. (2022)

Test: yeast display, Sf9 membrane polyspecificity reagent, FACS + sequencing; frameworks hold sequencing errors
Method in brief: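 A nanobody's polyreactivity label depends on the gate it was sorted from. Yeast display cells were stained with 10% biotinylated, detergent-solubilized Sf9 membrane reagent for 1 hour at 4 °C, enriched on streptavidin microbeads and sorted by FACS. The low and high (top ~1%) gates were set on anti-HA fluorescence for expression and streptavidin fluorescence for reagent binding.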

| Sequence | polyreactivity (PSR sort gate) |
| --- | --- |
| QVQLVESGGGLVQAGGRLRLSCAAYGRIFDYYAMGWYRPAPGKEREFVAGITSTGGSTYYADSVKGRFTISRDNAMNTVYFQMNSLKPEDTPVYYCNVVKRLRHGYDYWGQGNQVTVSS | high polyreactivity |
| QVQLVESGGGLVQAGGSLRLSCAASGGIFIRYAMGSYRQAPGKERELVAAITQSGAGTNYADSVKGRFTISRDNAKNTVYLQMNSLKPEDTAVYYCAATGLPGYYAYDYWGQGTQVTVSS | low polyreactivity |
| QVQLVESGGGLVQAGGSLRLSCAASGSTFRVYVMGWYRQAPGKERELVAAISQRGGSTYYADSVKGRFTISRDNAKNTVYLQMNSLKPEDTAVYYCAADQPGARTWSNRESDYWGQGTQVTVSS | high polyreactivity |
| QVQLVESGGGLVQAGGSLRLSCAASGSTFGYYTMGWYRQAPGKERELVAALTWSGGSTYYADSVKGRFTISRDNAKNTVYLQMNSLKPEDTAVYYCAADDYWTPFGYWGQGSQVTVSS | low polyreactivity |
| QVQLVESGGGLVQAGGSLRLSCAASGSTFIFYTMGWYRQAPGKERELVAAITSNGGSTYYADSVKGRFTISRDNAKNTVYFQMNSLKPEDTAVYYCARVDRWRRYRYIFSGYDYWGQGTQVTVSS | high polyreactivity |
| QVQLVESGGGLVQAGGSLRLSCAASGRTFKYYALGWYRQAPGKERELVAAISTRGGRTYADSVKGRFTISRDNAKNTVYLQMNSLKPEDTAVYYCARDSNVGHHGFDYWGQGTQVTVSS | low polyreactivity |
| QVQLVESGGGLVQAGGSLRLSCAASGSTFQTYAMGWYRQAPGKERELVAAITYGGSTNYADSVKGRFTMSRANAKNTVYLLMNSLKPEDTAVYYCAARDGDQRPRLRYDYWAQGTQVTVSS | low polyreactivity |
| QVQLVESGGGLVQAGGSLRLSCAASGRIVEGNVMGWYRQAPGKERELVAGISSGGSTTYADSVKGRFTISRDNAKNTVYLQMNSLKPEDTAVYYCAASRKRFRHSSYRFYYCGQGTQVTVSS | high polyreactivity |
| QVQLVESGGGLVQAGGSLRLSCAASGSIFPGNAMGWYRQAPGKERELVAAIRGGGSTNYADSVKGRFTISRDNAKNTVYLQMNSLKPEDTAVYYCNADPFTGYDYWGQGTQVTVSS | low polyreactivity |
| QVQLVESGGGLVQAGGSLRLSCAASGRIFGFYAMGWYRQAPGKERELVARITLSGGRTYYADSVKGRFTISRDNAKNTVYLQMNSLKPEDTAVYYCAAVSYSKRTWSMNYWGQGTQVTVSS | high polyreactivity |
| QVQLVESGGGLVHAGGSLRLSCAASGSTFGYYAMGWYRQAPGTERELVADINWNGGSTNYADSVKGRFTISRDTEKKTVYLQMNSLKPEDTAVYFCAKGLRPYRFYYWGQGTQVTVSS | high polyreactivity |
| QVQLVESGGGLVQAGGSLRLSCAASGIIFYYYAMGGYRQAPGKEREFVAGIRWSSGSTYYADSVKGRFTISRDNAKNTVYLQMNSLKPEDTAVYYCAADSSGEYPGGYWGQGTQVTVSS | low polyreactivity |
| QVQLVESGGGLVQAGGSLRLTCAASGFTLGLNAMGWYRQAPGKEREVVAAIRRSAGSTYYADSVKGRFTISRDNAKNTVYLQMNSLKPEDTAVYYCAAGFLWAKYAYGHWGQGTQVTVSS | low polyreactivity |
| QVQLVESGGGLVQAGGSLRLSCAASGFTINFYSLGWYRQAPGKERELVAAITASGGGSTYYADSVKGRFTISRDNAKNTVYLQMNSLKQEDTAVYYCNADFTGSFYTYEYWGQGTQVTVAS | low polyreactivity |
| QVQLVESGGGLVQAGGSLRLSCAASGRIFYYYTMGWYRQAPGKERELVADISRGGSTYYADSVKGRFTISRDNAKNTVYLQMNSLKPEDTAVYYCNAVTRIQTSYPSNWGMMDYWGQGTQVTVSS | low polyreactivity |
| QVQLVESGGGLVQAGGSLRLSCAASGFTFGDNAMGWYRQAPGKERELVAAITSTGGSTNYADSVKGRFTISRDNAKNTVYLQINSLKPEDTAVYYCAAEWLYPHDGGYPRPMDYWGQGTQVTVSS | low polyreactivity |
| QVQLVESGGGLVQAGGSLRLSCAASGNIFIYNAMGWYRQAPGQERELVAAISVSGGDTYYADSVKGRFTISRDNAKNTVYLQMNSLKPEDTAVYYCKASYVLTGQRYGYWGQGTQVTVSS | low polyreactivity |
| QVQLVESGGGLVQAGGSLRLSCAASGSIFWRYDMGWLDRRLGKKGSSLPLLLVLVTTRTTQTPVKGRFTISRDNAKNTVYLQMNSLKPEDTAVYYCAADLRASGLKYEYWGQGTQVTVSS | low polyreactivity |
| QVQLVESGGGLVQAGGSLRLSCAASGSTFYRYAMGWYRQAPGKERELVAAISYRGGSTYYADSVKGRFTISRDNAKNTVYLQMNSLKPEDTAVYYCNKRSTRRYDYWGQGTQVTVSS | high polyreactivity |
| QVQLVESGGGLVQAGGSLRLSCAASGRIFHWYAMGWYSQAPGKERELVAAISTDGSTYYADSVKGRFTISRDNAKNTVYLQKNSLKPEDTAVYYCAAVPGYTHLWGGPFDYGGQGTQVTVSS | low polyreactivity |
| QVQLVESGGGLVQAGGILRLSCAASGRIFRGYAMVWYRQAPGKERELVAAISNGGGTNYADSVKGRFTISRDNAKNTVYLQMNSLKPEDTAVYYFATGFLQNYYKYTSSFRFYYWGQGTQVSVSS | high polyreactivity |
| QVQLVESGGGLVQAGGSLRLSCAASGYTLADYAMGWYRQAPGKERELVAAISSGGITSYADSVKGRFTISRDNAKNTVYLQMNSLKPEDTAVYYCNAAIVGFTRAYQYDYWGQGTQVTVSS | high polyreactivity |

| Sequence | polyreactivity (PSR sort gate) |
| --- | --- |
| QVQLVESGGGLVQAGGSLRLSCAASGRTFGYYAMGWYRQAPGKERELVAAISWRGGSTYYADSVKGRFTISRDNAKNTVYLQMNSLKPEDTAVYYCHRAYVYPQGPYPYDYWGQGTQVTVSS | high polyreactivity |
| QVQLVESGGGLVQAGGSLRLSCAASALTFHFNAMGWYRQAPGKERELVASITSSGGSTYYADSVKGRFTISRDNAKNTVSLQMNSLKPEDTAVYYCNAEGSSVLTGYWGYPPYWDTYDYSGQGTQVTVSS | low polyreactivity |
| QVQLVESGGGLVKAGGSLRLSCAASGRTFGNYAMGWYRQAPGKERELVASMNTGGSTSYADSVKGRFTISRDNAKNTVYLQMNSLKPEDTAVYYCARSFFWYRLHDYWGQGTQVTVSS | low polyreactivity |
| QVQLVESCGGLVQAGGSLRLSCASSGRTIDSKAMGWYRQAPGKERELVAAISWSGGSTYYADSVKGRFTISRDNAKNTVYLQMNSLKPEDTAVYYCNRLGRHAPATRYGYWGQGTQVTVSS | high polyreactivity |
| QVQLQERGGGLVQAGGSLRLTCAASGTISDSGLMGWYRQAPGKERELVAGISSGGITNYADSVKGRFTISRDNANNTVYLQMNSLKPEDNAVFWGQGSQVTVSS | low polyreactivity |
| QVQLVESGGGLVQAGGSLRLSCAASGITFLPYAMGWYRPAPGKERELVAAITRGGGSTYADSVKGRFTISRDNAKNTVYLQMYSLKPEDTAVYYCNAKGRGWTAQYDYWGQGTQVTVSS | low polyreactivity |
| QVQLVESVGGLVQAGGSLRLSCAASGFIQGAYAMGWYRPAPGKERELVAAITSSGGSTYYADSVKGRFTISRDNAKNTVYLQMNSLKPEDTAVYYCNTVYVYGPEYDYWGQGTQVTVSS | high polyreactivity |
| QVQLVESGGGLVQAGGSLRLSCAASGRIFYGYARGWYRQAPGKERELVATITWSGGSTYYADSVKGRFTISRDNAKNTVYLQMNSLNPEDTAVYYCAAYSPYIYQAYRYDYWGQGTQVTVSS | low polyreactivity |
| QVQLVESGGGLVQAGGSLRLSCAASGINFPGYAMGWYRQAPGKERELVAVIRKSGTSTYYADSVKGRFTISRDNAKNTVYLQMNSLKPEDTAVYYCAAGGPSTLDDYWGQGTQVTVSS | low polyreactivity |
| QVQLVESGGGLVQAGGSLRLSCAASVFTFLYYAMGWYRQAPGKERELVAAISSTGGTTYYADSVKGRFTISRDNAKNTVYLQMNSLKPEDTAVYYCAADQGVYRTYWFDYWGQGTQVTVSS | high polyreactivity |
| QVQLVESGGGLVQAGGSLRLSCAASGSIMYVYAMGWYRQAPGKERELVAVITSGGSTNYAESVKGRFTISRDNAKNTVFLQMNSLKPEDTAVYYCAADPYSVYGGDYWGQGTQVTVSS | low polyreactivity |
| QVQLVESGGGLVQAGGSLRLSCAASGSTFYPYAMGWYRQAPGKERELVAAITSSGGSTYYADSVKGRFTISRDNAKNTVYLQMNSLKPEDSAVYYCAKLHVPPVHYDYWGQGTQVTVSS | low polyreactivity |
| QVQLVESGGGLVQAGGRLRLSCAASGLIFDDYAMGWYRQAPGKERALVAAIDWGGGSTYYADSVKGRFTISRDNAKNTVYLQMNSLTPEHTAVYYCAADSYFSYRYNYWGQGTQVTVSS | low polyreactivity |
| QVQLVESGGGLVQAGGSLRLSCAASGSTFVYYAMGWSRQAPGKERELVASIRTGGTTNYADSVKGRFTISRDNAKNTVYLQMNSLKPEDTAVYYCNKDTRPTDTTVSLYYWSAWRDYWGQGTQVTVSS | low polyreactivity |
| QDQLVESGGGLVQAGGSLRLSCAASGRIFRGNAMGWYRQAPGKEREMVAAISRRSGSTYYADSVKGRFTISRDNAKNTVYLQMNSLKPEDTAVYYCAATSSLGDFRYDYWGQVTQVTVSS | high polyreactivity |
| QVQLVESGGGLVQAGGSLRLSCAASGIIFGDNAMGWYRQAPGKERELVAAISSGGITYYADSVKGRFTISRDNAKNTVYLQMNSLKPEDTAVYYCAAGYYDFWYDYWGQGTQVTVSS | low polyreactivity |
| QVQLVESGGGLVQAGGSLRLSCAASGFSFSSYAMGWYRQAPGTERELVATISVNGGSTNYADSVKGRFTISRDNAKNTVYLQMNSLIPEDTAVYYCNAKSYTRRSYYTPTVPGDYWGQGTQVTVSS | low polyreactivity |
| QVQLVESGGGLVQAGGSLRLSCAASGRIFPTNAMGWYRQAPGKERELVAGISSSGGSTYYADSVKGRFTISRDNAKNTVYLQMNSLKPEDTAVYYCNAVGYQYLRVYYWGQGTQVTVSS | low polyreactivity |
| QVQLVESGGGLVQAGGSLRLSCSPSGSIFVSYTMGWYRQAPGKERELVAAISSGGSTYYADSVKGRFTITRDNAKNTVYLQMNSLKPEDTAVYYCARRLTREYDYWGQGTQVTVSS | low polyreactivity |
| QVQLVESGGGLVQAGGSLSLSCAASGYIFRYYAMGSYRQAPGKEREFGAAISWRGGSTYYADSVKGRFTISRDNAKNTVYLQMNRLKPEDTEFYYCAAGYFSFFGHYNAGLDYWGQGTQVTVSS | high polyreactivity |
| QVQLVESGGGLVQAGGSLSLSCAASGITFSYYAMGWYRQAPGNERELVASINFSGGSTSYADSVKGRFTISRDNAKITVYFQMNSLKPEDPAVYYCAAQIWSKDEKHDYWGQGTKVTVSS | high polyreactivity |
